Experiment: yeast display, Sf9 membrane polyspecificity reagent, FACS + sequencing; frameworks hold sequencing errors
Method in brief: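 In a synthetic yeast display library (Saccharomyces cerevisiae BJ5465), nanobody expression was induced with galactose for 36–48 hours. FACS gates were set low and high (top ~1%) using anti-HA fluorescence for expression and streptavidin fluorescence for binding of the Sf9 membrane reagent. Each polyreactivity label is drawn from the gate of origin.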

Row | Sequence | polyreactivity (PSR sort gate)
1 | QVQLVASGGGLLQAGGSLRLSCAASGRILRVYAMGWYRPAPGKESELVAAITWRGGSTYYADSVKGRFTISRDNAKNTVYLQMNSLKPEDTAVYYCAAEAYSYGYSALLYDYWGQGTQVTVSS | high polyreactivity
2 | QVQLVESGGGLVQAGGSLRLSCAASGFTVPGYAMGWYRQAPGNERELVAAINSSGGRTYYADSVKGRFTISRDTAKITVYFQMTSLKPEDTAVYYCAATRWYIRARYNYWGQGTQVTVSS | high polyreactivity
3 | QVQLVESGGGLVQAGGSLRLSCAASGYTSSLNAMGWYRQAPGKERELVARITTDGTSTYYADSVKGRFTISRDNANNTVYLQMNSLKPEDTAVYYCAAEYSYVQFGFGYWGQGTQVTVSS | low polyreactivity
4 | QVQLVESGGGLVQAGGSLRLSCAASGRIFHTYGRRWSRQAPGKEREFVAAITWTGGSTYYADSVKGRFTISRDNAKNTFYLQMNSLKPEDTAVYYCAADYPRDIIGSMDYWGQGTQVTVSW | low polyreactivity
5 | QVQLVESGGGLVQAGGSLRLSCAASGGTFWAYTMGWYRQAPGKERELVATISFGTGNTYYADSVKGRFTISRDNAKNTVYLQMNSLKPEDTAVYYCAAQWPELTRSYVTVEVEYWGQGTQVTVSS | low polyreactivity
6 | QVQLVESGGGLVQAGGSLRLSCAASGRTFGRNAMGWYRQAPGKEREFVAAISRRGDTTYYADSVKGRFTISRDNAKNTVYLQMNSLKPEDTAVYYCNADVIKDRFSWYYYWGQGTQVTVSS | low polyreactivity
7 | QVQLVESGGGLVQAGGSLRLTCAASGLTFGFNAMGWYRQAPGKERELVAAISSRGGSTYYADSVKGRFTISRDNAKNTVYLQMNSLKPEDTAVYYCAVRYYSPYGYWGQGTQVTVSS | low polyreactivity
8 | QVQLVESGGGLVQAGGSLRLSCADSGSILIYNAMGWYRQAPGKERELVAGISRRGASTYYADSVKGRFTISRDNAKNTVSLQMNSLKQEDTAVYYCAALGKYIVAWSGDYWGQGTQVTVSS | low polyreactivity
9 | QVQLVESGGGLVQAGGSLRLSCAACGSTFYAYAMGWYRQAPGKERELVAAIDSGGSTYYADSVKGRFTISRYNAKNTVYLEMNSLKPEDTAVYYCAVRHRYTRAYRGRDYWGQGTQVTVSS | low polyreactivity
10 | QVQLVESGGGLVQAGGSLRLSCAASGVIFYFNALGWYRQAPGKERELVAAISGGDNTYYADSVKGRFTISRDNAKNTVYLQMNSLKPEDTAVYYCAAKYRYGQNGYYLYGYWGQGTQVTVSS | low polyreactivity
11 | QVQLEESGGGLVQAGGSLRLSCAASGSTLTRNAMGWYRQAPGKERELVAAITSGGRTKYADSVKGRFTISRDNAKNTVYLQMNSLKPEDTAVYYCAKGGPPGQRGYDYWGQGTQVTVSS | high polyreactivity
12 | QVQLVESGGGLVQAGGSLRLSCAASGGIFVSYAMGWSRQAPGKERELVARINTVDGTNYADSVKGRFTISRDNAKNTVYLQMNSLKPEDTAVYYCAVRSPVLASDYGYYFLRDYWGQGTQVTVSS | low polyreactivity
13 | QVQLVESGGGLVQAGGSLRLSCAASLIFANYAMGWYRQAPGKERELVAAISSVGRTYYADSVKGRFTISRDNAKNTVYLQMNSLKPEDTAVYYCAAESWFKYDYWGQGTQVTVSS | low polyreactivity
14 | QVQLVESGGGLVQAGGSLRLSCAASGSIFGKYTMGWYRQAPGKERELVAAISRSGSSTYYADSVKGRFTISRDNAKNTVYLQMNSLKPEDTAVYYCAAKFYYGVTSKFESWGQGTQVTVSS | high polyreactivity
15 | QVQLVESGGGLVQAGGSLRLSCAASGSIFSKNAMGWYRQAPGKERELVAAISSSGGITYYADSVKVRFTISRDNANNTVYLQMNSLKPEDTAFYYCATLGGAIRQAFEYWGQGTQVNVSS | low polyreactivity
16 | QVQLVESGGGLVQAGGSLRLSCAASGITFGDYDMGWYRPAPGKERELVAAITYDGGTTYYADSVKGRFTISRDNAKNTVYLQMHSLKPEDTAVYYCNADSYRGLYDYWGQGTQVTVSS | low polyreactivity

Row | Sequence | polyreactivity (PSR sort gate)
17 | QVQLVESGGGIVQAGVSLRLSCAASGGTLCTYAMGWYRQAPGKERELVASIDSGDSTYYADSVKGRFTISRDNAKNTVYLQMNSLKPEDTAVYYCAAAYFRRYTTTWYGYEYWGQGTQVTVSS | low polyreactivity
18 | QVQLVESGGGLVQAGGSLRLSCAASGSIFSWYAMGWYRQAPGKERELVAAISWSSGSTYYADSVKGRFTISRDNAKNTVYLQMNSLKPEDTAVYYCAADATYLGWYELYYWGQGTQVTVSS | high polyreactivity
19 | QVQLVESGGGLFQAGGSLRLSCAATGSTYIRYAMGWYRQAPGKEREFVAAITWSGTGTYYADSVKARFTISRDNAKNTVYLQMNSLKPEDTAVYYCAAEWSWVRYSFDYWGQGTQVTVSS | high polyreactivity
20 | KVQLEESGGGLVQSGGILRLSCAASGSTLWSNTMGWYRQEQGKERELVDAISSGGGSTYADSVKGRFTISRDNAKNTVYLQMNSLKPEDTAVFYCAASAYYYRHSSWHRSDYWGQGTQVTVSS | high polyreactivity
21 | QVQLVESGGGLVQAGGSLRLSCAASGSIFSKYTMGWYRQAPGKERELVAAISRAGSTYYADSVKGRFTISRDNAKNTVYLQMNSLKPEDTAVYYCAAEWSDSVYYSYEYWGQGTQVTVSS | high polyreactivity
22 | QVQLGESGGGLVQAGGSLRLSCAASGSIFGSYAMGWYRQAPGKERELVAAISKSGGNTYYADSVKGRFTISRDNAKNTDYLQMNSLKPEDTAVYYCAAYGFYRWRGYDYWGQGTQVTLSS | high polyreactivity
23 | QVQLEESGGGLVQAGGSLRLSCAASGRTFYYNAMGSSRQAPGKERELVAGITYRGGSTYYADSVKGRFTISRDNAKNTVYLQMNSLKPEDTAVYYCAVKYSWLSRFNYWGLGTQVTVSS | high polyreactivity
24 | QVQIVESRGGLVQAGGSLRLSCSASGRTFTYYAMGWYRQAPGKERELVASITSGGSTYADSVKGRFTISRDNAMNTVYLQMNSLKPEDTAVYYCAARAWGYRYKYYWGQGTLVTVSS | high polyreactivity
25 | QVQLVESGGGLVQAGGSLRLSCAASGLTFFLYAMGWYRQAPGKERELVAAISSRGGSTYYADSVKGRFTISRDNAKNTVYLQMNSLKTEDTAVYYCAAATKGDEDYWGQGTQVTVSS | high polyreactivity
26 | QVQLVESGGGLVQEGGSLRLSCAASGRIYARNAMGWYRQAPGKERDLVAAIRNSDGSTYYADSVNGRFTISRDNAKNSVYLQMNSLKPEDTAVYYCNTVPYPAYLARMDYWGQGTQVTVSS | high polyreactivity
27 | QVQLVESGGGLVQAGGSLRLSCAASGSTIRYYAMGWYRQAPGKERELVAAITKSGGSTYYADSVKGRFTISRDNAKNTVYLQMNSLKPEDTAVYYCAAVRRWYYPALSEHDYWGQGTQVTVSS | low polyreactivity
28 | QVQLVESGGGLVQAGGSLRLSCAPSGRMFVFYTMGWYRPAPGKESELVAYINSGGSTYYADSVKGRFTISRDNAKNSVYLQMNSLKPEDTAVYYCAAGPCRGPDSRWRYKYDYWGQGTQVTVSS | high polyreactivity
29 | QVQLVESCGGLVQAGGSLRLSCAASGRTFVTYAMGWYRQAPGKERELVAAISKRGSRTYYAYSVKGRFTISRDNAKNTVYLQMNSLKPEDTAVYYCNADPYRTSYDYWGQGTQVTVSS | high polyreactivity
30 | QVQLVESGGGLVQAGGSLRLRCAASGRIFGRNAMGWYRQAPGKERELVATISSGDTTDYADSVKGRFTISRDNAKNTVYLQMNSLKPEDTAVYYITIYNYWGQGTQVTVSS | low polyreactivity
31 | QVQLVESGGRLVQARGSLRLSCAASGRIFAYYTLGWYRQAPGKERELVAVISGSGGRTYYADSVKGRFTISRDNAKNTVYLQMNSRKPDDTAVYYCAAYYQGIKYDYWGQGTQVTVSS | high polyreactivity
32 | QVQLVESGGGLVQAGGSLRLSCAASGSIFIQYAMGWYRQAPGKERELVAAITSGGGSTYYADSVKGRFTISRDNAKNTVYLQMNSLKPEDTAVYYCAVDRTRRPAVPYVTLDRGYCGQGTQVTVSS | low polyreactivity

— the nanobody polyreactivity screen of Harvey et al. (2022)
